Experimental findings from PMC9693643, “Aminoquinolones and Their Benzoquinone Dimer Hybrids as Modulators of Prion Protein Conversion” (Molecules, 2022) are described below.

The series concerns the molecule itself. As to the kind of experiment: RT-QuIC (seeded fibril conversion, thioflavin T fluorescence).

B1: murine recombinant full-length prion protein (PrP23-231) (natural protein)
chain: not shown
notes: also called recombinant PrP; PrP23-231 fibril seed
On to B1, for which the binding result is reported as “binds”.
